In publication PMC9486129 (2022):
Where no end group is shown, it is not given here. [ ]: non-standard residue; d: D form. pY = N[C@@H](Cc1ccc(OP(=O)(O)O)cc1)C(=O)O

T1: ZAP-70 tSH2 WT (1–256)
T1 chain: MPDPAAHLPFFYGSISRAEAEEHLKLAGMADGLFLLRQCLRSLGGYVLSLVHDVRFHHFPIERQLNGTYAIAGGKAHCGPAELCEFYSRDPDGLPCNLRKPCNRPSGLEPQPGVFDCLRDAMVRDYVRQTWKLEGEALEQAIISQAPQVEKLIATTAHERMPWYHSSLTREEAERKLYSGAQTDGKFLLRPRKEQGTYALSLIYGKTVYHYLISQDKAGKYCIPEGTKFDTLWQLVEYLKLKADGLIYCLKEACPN

B1: ZAP-70 C-SH2 (protein)
chain: WYHSSLTREEAERKLYSGAQTDGKFLLRPRKEQGTYALSLIYGKTVYHYLISQDKAGKYCIPEGTKFDTLWQLVEYLKLKADGLIYCLKEAC

Tests used:
ITAM-Y2P-ζ3 ITAM3 = ITAM-Y2P-ζ3 ITAM3 (Homo sapiens, UniProt P20963, doubly phosphorylated ITAM)
Chain of ITAM-Y2P-ζ3 ITAM3 (P20963 128-162): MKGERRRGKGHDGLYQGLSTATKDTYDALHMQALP

ZAP-70 tSH2 WT (1–256) [1] = molecular target: T1, ZAP-70 tSH2 WT (1–256); assay: ITC; Kd2, second site
ZAP-70 tSH2 WT (1–256) [2] = molecular target: T1, ZAP-70 tSH2 WT (1–256); assay: Kd1, first site (intrinsic fluorescence titration)

| Binder | Kd (ITAM-Y2P-ζ3 ITAM3) | Kd (ZAP-70 tSH2 WT (1–256) [1]) | Kd (ZAP-70 tSH2 WT (1–256) [2]) |
| --- | --- | --- | --- |
| B1 | 6.8 nM | – | – |
| NQL[pY]NELNLGRRAE[pY]DVLD [ITAM-Y2P-ζ1 E13A] | – | 9800 nM | 4.5 nM |
